Measured values from patent US20250352611A1, “METHODS FOR TREATING CATARACTS USING POLYPEPTIDES” (REJUKON BIOPHARM INC., priority 2022, published 2025).

Columns and labels:
G3BP1-GFP protein = target: T1, G3BP1-GFP protein (Mus musculus, UniProt P97855); assay: G3BP1-GFP phase separated droplet dissolution, confocal laser microscope; type: biochemical; details: 60 uM polypeptide, 20 uM G3BP1-GFP, pH7.5, 40s after addition
T1 construct: Genes of full-length mouse G3BP1, G3BP1-eGFP; thrombin protease cleavage site (C); His6 (C); made in house; host or cells: Escherichia coli rosetta (DE3)
Procedure: The prokaryotic expressed and purified G3BP1-GFP protein (pH7.5, 20 uM G3BP1-GFP) was induced to form phase separated droplets in vitro. Polypeptides Champ-E (RJK001), Champ-D (RJK002), Champ-K (RJK012) and Champ-Q (RJK005, […], SEQ ID NO: 34) (each of 60 uM) were added dropwise to the G3BP1-GFP droplets. The observation was performed continuously through a confocal laser microscope.
For G3BP1(FL)-eGFP, purified G3BP1(FL)-eGFP, Champ-E and its variants were changed were diluted to droplet buffer (50 mM Tris, pH 7.5, 150 mM NaCl) using SpinDesalt Column (smart). G3BP1(FL)-eGFP proteins were diluted to indicated concentrations and supplemented with PEG8000 with 1.25% final concentration for 10 min to induce phase separation as reported.

G3BP1 = target: T2, G3BP1 (Mus musculus, UniProt P97855); assay: G3BP1 turbidity assay (OD395 nm); type: biochemical; details: G3BP1 30 μM, ratio range 0.75 to 25, room temperature, 10 minutes
T2 construct: Genes of full-length mouse G3BP1, G3BP1-eGFP; thrombin protease cleavage site (C); His6 (C); made in house; host or cells: Escherichia coli rosetta (DE3)
Procedure: The turbidity of G3BP1 (30 μM) in the presence of various concentrations of Champ-E, Champ-D, Champ-K, or Champ-Q was measured at a wavelength of 395 nm. Briefly, G3BP1 protein ([…]) and polypeptides Champ-E (RJK001), Champ-D (RJK002), Champ-K (RJK012) and Champ-Q (RJK005) were mixed well in a ratio range of 0.75 to 25 at room temperature for 10 minutes prior to turbidity assays. Absorbance at 395 nm (OD395 nm) was monitored at room temperature using Nanodrop ONE (Thermo Fisher Scientific, Inc.). […] The turbidity level reflects the degree of phase separation.
Briefly, the G3BP1 protein and the above-mentioned peptides were mixed at room temperature for 10 minutes prior to turbidity assays. 30 μM G3BP1 and peptide were mixed well in a ratio range of 0.75 to 25 before test. Absorbance at 395 nm (OD395 nm) was monitored at room temperature using Nanodrop ONE (Thermo Fisher Scientific, Inc.).
(§1) We followed the Turbidity Assays experiment as previously reported. Briefly, G3BP1 turbidity analysis were at room temperature and γD-crystallin protein was at 4° C. Proteins and Champ-E(RJK001), Champ-K, Champ-D or mutants are mixed at room temperature for 10 minutes prior to turbidity assays. 20 μM G3BP1 and 50 mg/ml(2.5 mM) γD-crystallin and peptide were mixed well in a ratio range of 0.75 to 25 before test. Absorbance at 395 nm (OD395 nm) was monitored at room temperature using Nanodrop ONE (Thermo Fisher Scientific, Inc.).

γD-crystallin = target: T3, γD-crystallin (Homo sapiens, UniProt P07320); assay: γD-crystallin turbidity assay (OD395 nm) at 4° C.; type: biochemical; details: γD-crystallin 50 mg/ml, RJK001 0-500 uM, 5 min
T3 construct: Wild-type human full-length γD-crystallin gene were inserted into pET14b vectors; made in house; host or cells: E. coli BL21 (DE3)
T3 sequence (P07320 1-174): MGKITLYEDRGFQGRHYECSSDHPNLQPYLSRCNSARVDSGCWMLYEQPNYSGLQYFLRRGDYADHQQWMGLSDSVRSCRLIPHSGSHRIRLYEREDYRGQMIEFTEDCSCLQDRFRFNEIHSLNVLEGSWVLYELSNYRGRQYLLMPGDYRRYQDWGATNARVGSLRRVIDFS
Procedure: The purified γD-crystallin was then dissolved in protein solubilization buffer to a final concentration of 50 mg/ml, Place γD-crystallin at 4° C. for 20 minutes to form a stable biphasic phase, add different concentration of the short peptide RJK001 in Sul γD-crystallin in a volume ratio of 1:1, final concentration of RJK001 from low to high is 0 uM, 20 uM, 50 uM, 100 uM, 150 uM, 200 uM, 250 uM, 300 uM and 500 uM, Use a 10 ul pipette tip to mix them well, then place them at 4° C. for 5 min, absorbance at 395 nm (OD395 nm) was monitored at 4° C. using Nanodrop ONE (Thermo Fisher Scientific, Inc.). […] The turbidity level reflects the degree of phase separation.
For γD-crystallin, γD-crystallin was purified in vitro, then were dissolved in protein solubilization buffer (150 mM NaCl, 50 mM tris-HCl, PH 7.5) to a final concentration of 50 mg/ml, Place γD-crystallin at 4° C. for 20 minutes to induce phase separation.
as §1, with “20 μM G3BP1 and 50 mg/ml(2.5 mM) γD-crystallin and peptide were mixed well in a ratio range of 0.75 to 25 before test.” left out

[1] = system: crystallin protein aggregates from human cataract patients; assay: Re-dissolution of crystallin aggregates from patients with different degrees of cataract (ThT fluorescence); details: LOCS II grades e.g. C1N2P0
Excerpt: DM: diabetes mellitus. lens opacity classification: C: cortex; N: nucleus; P: the posterior lens capsule.
Human lenses used in this study were obtained from unidentified patients undergoing extracapsular cataract surgery. The material had been classified as non-human discarded material. Preoperative clinical exam was used to classify the cataract as mixed cortical and nuclear using LOCS II four-point grading system. LOCS II four-point grading system is also commonly used in clinical settings. (Chylack LT Jr, Leske MC, McCarthy D, Khu P, Kashiwagi T, Sperduto R. Lens opacities classification system II (LOCS II). Arch Ophthalmol. 1989 July; 107(7):991-7. doi: 10.1001/archopht.1989.01070020053028. PMID: 2751471). We tested the crystallin concentrates of patients with different degrees of cataract one by one. […]

With “TEPQEESEEEVEEPEERQQTPEVVPDDSGTFYDQTVSNDLE [RJK001, polypeptide with hydrophilic and hydrophobic segment, expressed in E. coli]” the “dissolution of G3BP1-GFP phase separated droplets” value (G3BP1-GFP protein) was “significantly dissolved the phase separated droplets”, the “turbidity of G3BP1 (OD395 nm)” value (G3BP1) was “reduced the turbidity in a concentration dependent manner” and the “turbidity of γD-crystallin (OD395 nm)” value (γD-crystallin) was “reduced the turbidity of γD-crystallin in a concentration dependent manner”. The “depolymerization effect on crystallin concentrates of patients with different degrees of cataract” value [1] was “good depolymerization effects”.
